For one data set, the system named is NC(=O)NC(=O)O. Put plainly: purified protein. In kind it is biochemical, Granulibacter bethesdensis. Conditions: 50 mM HEPES pH 7.4, 50 mM NaCl, 1 mM EGTA, 25 °C.
Substrate in the data set “purified protein”: NC(=O)NC(=O)O
The experiment in a line: purified protein. In kind it is biochemical, Granulibacter bethesdensis. Conditions: 50 mM HEPES pH 7.4, 50 mM NaCl, 1 mM EGTA, 25 °C. The source holds these as a separate data set.

Results on 3 molecules are retold here after publication PMC3568674.

For the molecule “GbAH (Granulibacter bethesdensis allophanate hydrolase), wt (Granulibacter bethesdensis CGDNIH1; Y299A)”, in the data set with NC(=O)NC(=O)O, the Km (commonly the concentration of substrate that gives half-maximal velocity) turned out to be 3000 ± 400 µM; the kcat (as a rule, the number of substrate molecules converted per active site and unit of time at saturation) came to 0.071 ± 0.002 s⁻¹; the kcat/Km (commonly the second-order rate constant that governs catalysis at low substrate concentration) was determined as 24 ± 3 M⁻¹ s⁻¹.

Take “GbAH (Granulibacter bethesdensis allophanate hydrolase), wt (Granulibacter bethesdensis CGDNIH1; Y299F)”: in the data set with NC(=O)NC(=O)O, the Km stood at 1200 ± 100 µM, the turnover number (kcat) was determined as 0.042 ± 0.001 s⁻¹ and the kcat/Km came to 35 ± 3 M⁻¹ s⁻¹.

B1: GbAH (Granulibacter bethesdensis allophanate hydrolase), wt (Granulibacter bethesdensis CGDNIH1) (protein)
chain: MTLSMTLEGIQAFLAQGGTIEQVVTEAYDRITRYGDKAVWIALRPREEVLAEARALDASPATGKPLYGVPFAVKDNIDVAGLPCSAACPAFTYEPDRDATVVARLRAAGAIVLGKTNLDQFATGLVGTRSPFGAPRCVFDQDYISGGSSSGSAVAVAAGLVAFSLGTDTAGSGRVPAAFNNLVGVKPTKGLLSTSGVVPACRSLDCVTVFAASVAEGTLIRRIAEGYDAADPYSRPSQKRRLPHVGLRVGVPRQDQREFYGNTAYAALYQRALDEMISLDAELVEIDFAPFRDAAKLLYGGPWVAERLEAVGDHLSRAPDSFDPVVRSIVETAKTLSAVDAFRGQYELAALTQQANAQWARMDILLLPTAPTIHKVEAVMADPVRLNSQLGHYTNFVNLLDCAAIAVPAGFIETGLPFGVTLVGPAFSDDSMALIADRLHRRLEPGYGQDRASLPDPVLEETNPEQIALAVVGAHLSGQPLHWQLTERNATLVARTRTAPEYRLYALAETIPPKPGLVADPDFTGDGIEIELWSMDAEAFGTFTALVPAPLAIGTLRLADGTSVKGFVCEPAGLVGAQDITRFGGWRAYLAQ
In the case of B1, in the data set “purified protein”, the Km worked out at 100 ± 2 µM, the kcat was 18 ± 1 s⁻¹ and the kcat/Km is 180000 ± 3000 M⁻¹ s⁻¹.
